Measured values as given in paper PMC3169412, “Structure of 3-ketoacyl-(acyl-carrier-protein) reductase from Rickettsia prowazekii at 2.25 Å resolution” (Acta Crystallographica Section F: Structural Biology and …, 2011).

Biological target: the molecule itself
Test: crystal structure

B1: 3-ketoacyl-(acyl-carrier-protein) reductase (FabG) from Rickettsia prowazekii strain Madrid E (enzyme)
chain: MIDLTGKTSLITGASSGIGSAIARLLHKLGSKVIISGSNEEKLKSLGNALKDNYTIEVCNLANKEECSNLISKTSNLDILVCNAGITSDTLAIRMKDQDFDKVIDINLKANFILNREAIKKMIQKRYGRIINISSIVGIAGNPGQANYCASKAGLIGMTKSLSYEVATRGITVNAVAPGFIKSDMTDKLNEKQREAIVQKIPLGTYGIPEDVAYAVAFLASNNASYITGQTLHVNGGMLMV
notes: also called 3-ketoacyl-(ACP) reductase; 3-oxoacyl-(acyl-carrier-protein) reductase; not shown: His6, N-terminal, kept
For B1, the “stoichiometry N” value was 4.
